{"source": "paper PMC9843451", "assay_in_all_cases": "purified protein", "type_in_all_cases": "biochemical, Rhodopseudomonas palustris", "key": {"purified protein [1]": {"substrate": "O=C1CCCCO1", "conditions": "2.5 mM bicine pH 8.3, 150 mM NaCl, 1 mM CaCl2, DMSO, error is 95% CI"}, "purified protein [2]": {"substrate": "O=C1CCc2ccccc2O1", "conditions": "50 mM Tris pH 8, 150 mM NaCl, 1 mM CaCl2, DMSO, error is 95% CI"}, "purified protein [3]": {"substrate": "CCCCCCC1CCC(=O)O1", "conditions": "2.5 mM bicine pH 8.3, 150 mM NaCl, 1 mM CaCl2, DMSO, error is 95% CI"}}, "data": [{"protein": "Rpa3624 (Rhodopseudomonas palustris CGA009) (protein) MSNVRVLATDLAFPEGPVVMPDGSVVLVEIRAQQLTRVWPDGRKEVVAKVPGGPNGAALGPDGKMYICNNGGFGWFPSRGTMMPGAPAPHEYIGGSIQRVDLQSGEVETLFDKCGEHPLKGPNDLVFDKHGGLWFTDLGKRRARDMDVGAAYYIKPGMTEITEQVFGTLPLNGIGLSPDEATMYAAETPTGRLWAFDLSGPGEVKPRDVIYRGEKGKPICGLGGYQMFDSLAVEASGNVCVATLVSGCISVIAPDGTLVEQVPTGDRVTTNIAFGGPDLKTAYITLSGKGELIAMDWSRPGLPLNFLNK", "values": [{"measurement": "Km", "setting": "purified protein [1]", "value": "74.0 (40.7–133) mM"}, {"measurement": "kcat", "setting": "purified protein [1]", "value": 754, "unit": "s⁻¹"}, {"measurement": "kcat/Km", "setting": "purified protein [1]", "value": 10200, "unit": "M⁻¹ s⁻¹"}, {"measurement": "Km", "setting": "purified protein [2]", "value": "1.85 (0.976–3.77) mM"}, {"measurement": "kcat", "setting": "purified protein [2]", "value": 308, "unit": "s⁻¹"}, {"measurement": "kcat/Km", "setting": "purified protein [2]", "value": 166000, "unit": "M⁻¹ s⁻¹"}, {"measurement": "Km", "setting": "purified protein [3]", "value": "2.36 (1.15–4.82) mM"}, {"measurement": "kcat", "setting": "purified protein [3]", "value": 135, "unit": "s⁻¹"}, {"measurement": "kcat/Km", "setting": "purified protein [3]", "value": 57200, "unit": "M⁻¹ s⁻¹"}]}]}
